From US20150198603A1 (TORAY INDUSTRIES, published 2015)

How the values were obtained:
[1] = target: T1, human CAPRIN-1 as expressed on human breast cancer cell line MDA-MB-231V and in human cancer tissues (human, UniProt Q14444 2-709); assay: flow cytometry on MDA-MB-231V cells expressing CAPRIN-1
T1 construct: whole, on cells; Endogenous protein on cells (flow cytometry) or in paraffin tissue sections (immunohistochemistry); also called CAPRIN-1 on the surface of breast cancer cells; CAPRIN-1 in the breast cancer tissues
T1 sequence (looked up): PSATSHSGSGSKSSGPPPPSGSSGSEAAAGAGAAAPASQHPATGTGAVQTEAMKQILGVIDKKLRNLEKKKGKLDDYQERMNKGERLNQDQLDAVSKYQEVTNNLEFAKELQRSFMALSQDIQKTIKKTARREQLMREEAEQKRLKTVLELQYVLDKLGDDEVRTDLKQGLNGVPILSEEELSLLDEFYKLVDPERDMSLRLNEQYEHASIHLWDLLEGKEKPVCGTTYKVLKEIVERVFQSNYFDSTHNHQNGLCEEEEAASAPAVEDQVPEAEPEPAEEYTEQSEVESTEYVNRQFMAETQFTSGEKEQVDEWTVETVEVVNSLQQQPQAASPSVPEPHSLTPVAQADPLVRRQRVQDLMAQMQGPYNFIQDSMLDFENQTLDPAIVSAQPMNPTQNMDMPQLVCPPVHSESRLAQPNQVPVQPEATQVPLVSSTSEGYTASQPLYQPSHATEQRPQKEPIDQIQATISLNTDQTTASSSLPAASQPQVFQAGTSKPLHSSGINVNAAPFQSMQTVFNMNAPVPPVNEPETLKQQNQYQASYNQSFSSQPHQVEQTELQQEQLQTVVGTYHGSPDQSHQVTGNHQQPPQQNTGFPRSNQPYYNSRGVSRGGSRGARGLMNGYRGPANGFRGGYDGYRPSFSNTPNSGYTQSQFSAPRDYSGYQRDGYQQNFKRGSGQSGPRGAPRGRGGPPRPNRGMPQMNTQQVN
Procedure: Next, these monoclonal antibodies were screened for antibodies reactive with the surface of breast cancer cells expressing CAPRIN-1. Specifically, 5×10⁵ cells of a human breast cancer cell line MDA-MB-231V were centrifuged in a 1.5-mL microcentrifuge tube. 100 μL of the culture supernatant of each hybridoma obtained above was added thereto and left standing for 1 hour on ice. After washing with PBS, FITC-labeled goat anti-chicken IgG (H+L) antibodies (SouthernBiotech) diluted 30-fold with PBS containing 0.1% FBS were added thereto and left standing for 1 hour on ice. After washing with PBS, the fluorescence intensity was measured using FACSCalibur (Becton, Dickinson and Company). On the other hand, the same operation as above was performed using a medium for hybridoma culture to prepare a control sample. As a result, 1 monoclonal antibody (chicken anti-human CAPRIN-1 monoclonal antibody #11) having stronger fluorescence intensity than that of the control, i.e., reactive with the surface of breast cancer cells expressing CAPRIN-1, was selected.

[2] = target: T2, peptide consisting of the amino acid sequence shown in SEQ ID NO: 66 (partial CAPRIN-1 sequence) (human); assay: told from the digestion and MS/MS experiment done with #12
T2 peptide: QQPQAASPSVPE
Procedure: The cancer cell surface-reactive mouse-chicken chimeric anti-human CAPRIN-1 monoclonal antibody #12 obtained in the paragraph (4) was used to identify a CAPRIN-1 epitope region recognized thereby. 100 μg of recombinant CAPRIN-1 proteins was dissolved in a […] dissolving buffer and reacted with the monoclonal antibody #12. To this solution, a digestive enzyme trypsin or chymotrypsin was added, followed by digestion reaction at a proper temperature. After the reaction, a protein G Sepharose carrier was added thereto, then reacted, and precipitated by centrifugation operation. After removal of the supernatant, the carrier was washed with a dissolving buffer and PBS and dissolved in 0.1% formic acid, and the supernatant was recovered. The recovered supernatant sample was applied to a reverse-phase column (HLB Extraction Cartridge (Waters-OASIS)) to obtain an antibody-free sample solution. The obtained sample was subjected to reverse-phase liquid chromatography (Chromatography Nanosytem (KYA Technologies Corp.)) to recover a solution containing only peptides. The solution was introduced to a tandem-type mass spectrometer Quadrupole-TOF Mass Spectrometer (Waters-MicroMass) and analyzed by MS/MS to detect the peptides contained in the sample. […]

[3] = target: T3, human CAPRIN-1 having the amino acid sequence shown in SEQ ID NO: 2 (recombinant, as prepared in Example 3 of … (human, UniProt Q14444 1-709)); assay: ELISA, plate coated with 1 µg/mL CAPRIN-1, hybridoma supernatant
T3 construct: limits and tags of the recombinant construct are described only in WO2010/016526; also called recombinant CAPRIN-1; CAPRIN-1 solution
T3 sequence: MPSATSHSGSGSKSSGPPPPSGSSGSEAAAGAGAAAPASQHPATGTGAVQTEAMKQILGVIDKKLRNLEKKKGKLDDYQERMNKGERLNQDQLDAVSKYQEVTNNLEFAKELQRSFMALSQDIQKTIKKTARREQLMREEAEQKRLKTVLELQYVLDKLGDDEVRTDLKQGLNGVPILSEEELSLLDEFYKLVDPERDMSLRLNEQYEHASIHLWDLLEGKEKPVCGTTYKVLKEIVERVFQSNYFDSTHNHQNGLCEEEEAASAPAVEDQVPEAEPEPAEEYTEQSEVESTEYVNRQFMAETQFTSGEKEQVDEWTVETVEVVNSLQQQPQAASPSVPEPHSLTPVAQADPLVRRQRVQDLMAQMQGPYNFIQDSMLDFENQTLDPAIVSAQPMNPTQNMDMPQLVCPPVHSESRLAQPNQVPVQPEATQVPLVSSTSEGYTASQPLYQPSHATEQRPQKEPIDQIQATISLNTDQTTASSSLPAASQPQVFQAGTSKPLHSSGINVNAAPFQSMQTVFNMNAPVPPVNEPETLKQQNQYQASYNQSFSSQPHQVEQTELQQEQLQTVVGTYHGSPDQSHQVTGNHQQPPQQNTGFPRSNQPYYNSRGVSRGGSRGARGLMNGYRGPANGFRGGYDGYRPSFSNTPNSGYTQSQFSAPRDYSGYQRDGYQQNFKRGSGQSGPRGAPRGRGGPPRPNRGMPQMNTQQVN
Procedure: The prepared hybridomas were screened with the binding affinity of antibodies produced by the hybridomas against CAPRIN-1 as an indicator. The 1 μg/mL CAPRIN-1 solution was added to a 96-well plate at 100 μL/well and left standing at 4° C. for 18 hours. Each well was washed three times with PBS-T. Then, a 0.5% bovine serum albumin (BSA) solution (Sigma-Aldrich Corp.) was added thereto at 400 μL/well and left standing at room temperature for 3 hours. The solution in each well was discarded, and each well was washed three times with 400 μL of PBS-T. Then, the culture supernatant of each hybridoma obtained above was added thereto at 100 μL/well and left standing at room temperature for 2 hours. Each well was washed three times with PBS-T. Then, HRP-labeled anti-chicken IgY antibodies (Sigma-Aldrich Corp.) diluted 5000-fold with PBS were added thereto at 100 μL/well and left standing at room temperature for 1 hour. Each well was washed three times with PBS-T. Then, a TMB substrate solution (Thermo Fisher Scientific Inc.) was added thereto at 100 μL/well and left standing for 15 to 30 minutes to cause color reaction. […] The absorbance was measured at 450 nm and 595 nm using an absorption spectrometer. As a result, several hybridomas producing antibodies having high absorbance were selected as candidate lines of the hybridoma of interest.

binding result [1]: binds
binding result [2]: binds
binding result [3]: binds
B1: chicken anti-human CAPRIN-1 monoclonal antibody #11 (antibody, V domains shown)
VH: AVTLDESGGGLQMSRGGLSLVCKASGFDFSSYQMNWIRQAPGKGLEFVAAINKFGNSTGHGAAVKGRVTISRDNGQSTVRLQLNNLRAEDTAIYFCTKHAYGYCGSGTWCAAGEIDAWGHGTEVIVSS
VL: QAASTQPSSVSANPGETVEITCSGGGSYSYGWFQQKSPGSAPVTVIYYNNKRPSDIPSRFSGSKSGSTGTLTITGVQADDEAVYYCGSGDSTDTAVFGAGTTLTVLG
notes: Chicken hybridoma antibody; also called chicken monoclonal antibody #11
